Reference: US20260191907A1 (INSTITUT CURIE, published 2026)

Tests used:
[1] = target: T1, FGFR4 expressed on the surface of RMS cells (Rh4-FR4 wt, Rh30) (human, UniProt P22455 22-802); test: flow cytometry of DiR fluorescence, liposomes at 0.5 mM lipid on Rh4-FR4 wt cells, 2 h at 37 °C
T1 construct: Endogenous FGFR4 of the rhabdomyosarcoma cell lines; The whole entry includes the signal peptide; also called cell-surface FGFR4; Rh4-FR4 wt cells
Experimental: Binding validation of selected phages, recombinant nanobodies and decorated liposomes was performed on Rh4-FR4 wt and Rh4-FR4ko cells. Specificity of selected phage clones binding to FGFR4 was determined by flow cytometry in 96-well plates (Becton Dickinson). Cell surface staining of Rh4-FR4 wt or Rh4-FR4ko cells was performed on ice in PBS supplemented with 1% FBS. 80 μL phages+20 μL PBS/1% milk were incubated on 1×10⁵ cells for 1 h on ice. […] Samples were analyzed after two washes by flow cytometry on a MACSQuant® cytometer (Miltenyi) and results were analyzed with FlowJo™ software (BD Biosciences, France). Phages displaying anti-mCherry nanobodies were used as negative control²⁴ and as positive control we used an anti-FGFR4 antibody (BT53, kindly provided by J. Khan lab, NCI, Bethesda, MD). For binding test of recombinant nanobodies, cells were detached with Accutase® (Stemcell Technologies) and washed with PBS. All following steps were performed on ice: 4×10⁵ cells were incubated with nanobody concentrations of 30 μg/ml for 1 h, washed once with PBS and incubated for an additional 30 min with anti His-tag FITC labeled antibody (LS-C57341, LSBioscience, diluted 1:10). The cells were washed once more with PBS and analyzed. Targeting liposomes were added at 0.5 mM final lipid concentration to cells in 96-well plates and incubated for 2 h at 37° C. and 5% CO₂. The cells were washed twice with PBS and detached with Accutase®.
(§1) We next wanted to test if nanobodies on the liposomal surface can still bind to FGFR4 expressing RMS cells. Rh4-FR4 wt and Rh4-FR4ko cells were incubated for 2 h with FGFR4-targeted liposomes or mCherry-targeted control liposomes under normal cell culture conditions. DiR fluorescence was subsequently analyzed by flow cytometry (FIG. 5).

[2] = target: T1, FGFR4 expressed on the surface of RMS …; test: flow cytometry of DiR fluorescence, liposomes at 0.5 mM lipid on Rh4-FR4 wt cells; reference L-mCh
Experimental: Samples were analyzed after two washes by flow cytometry on a MACSQuant® cytometer (Miltenyi) and results were analyzed with FlowJo™ software (BD Biosciences, France). Phages displaying anti-mCherry nanobodies were used as negative control²⁴ and as positive control we used an anti-FGFR4 antibody (BT53, kindly provided by J. Khan lab, NCI, Bethesda, MD). For binding test of recombinant nanobodies, cells were detached with Accutase® (Stemcell Technologies) and washed with PBS. All following steps were performed on ice: 4×10⁵ cells were incubated with nanobody concentrations of 30 μg/ml for 1 h, washed once with PBS and incubated for an additional 30 min with anti His-tag FITC labeled antibody (LS-C57341, LSBioscience, diluted 1:10). The cells were washed once more with PBS and analyzed. Targeting liposomes were added at 0.5 mM final lipid concentration to cells in 96-well plates and incubated for 2 h at 37° C. and 5% CO₂. The cells were washed twice with PBS and detached with Accutase®.
as §1

T1 sequence (P22455 22-802 limits assumed): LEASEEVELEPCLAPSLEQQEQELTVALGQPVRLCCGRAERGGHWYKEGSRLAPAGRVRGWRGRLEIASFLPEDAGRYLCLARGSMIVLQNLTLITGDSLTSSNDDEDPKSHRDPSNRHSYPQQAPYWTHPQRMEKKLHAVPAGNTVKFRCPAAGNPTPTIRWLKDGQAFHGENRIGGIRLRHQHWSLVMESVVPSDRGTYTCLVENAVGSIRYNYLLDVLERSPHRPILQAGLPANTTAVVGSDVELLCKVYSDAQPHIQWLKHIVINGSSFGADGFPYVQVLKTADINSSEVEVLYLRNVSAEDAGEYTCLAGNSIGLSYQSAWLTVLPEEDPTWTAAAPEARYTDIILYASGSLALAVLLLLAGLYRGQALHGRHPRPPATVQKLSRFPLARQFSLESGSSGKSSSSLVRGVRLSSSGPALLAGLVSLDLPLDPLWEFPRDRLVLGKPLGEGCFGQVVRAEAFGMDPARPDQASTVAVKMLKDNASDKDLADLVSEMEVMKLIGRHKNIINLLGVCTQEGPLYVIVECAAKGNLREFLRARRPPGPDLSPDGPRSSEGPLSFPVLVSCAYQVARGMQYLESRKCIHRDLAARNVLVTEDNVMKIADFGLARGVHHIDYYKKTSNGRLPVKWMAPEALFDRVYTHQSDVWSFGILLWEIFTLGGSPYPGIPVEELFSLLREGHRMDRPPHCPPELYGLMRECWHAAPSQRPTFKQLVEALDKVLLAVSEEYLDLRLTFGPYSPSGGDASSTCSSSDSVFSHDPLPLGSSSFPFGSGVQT

B1: L-F8, VCR-loaded fluorescent liposomes decorated with nanobody F8 (other)
VHH: EVQLVESGGGLVQPGGSLRLSCAASGTGYALDDMGWVRQAPGKGLEWVSAISDDESMADYYADSVKGRFTISRDNSKNTVYLQMNSLRAEDTAVYYCASYKEYKYQSGHHYFAYRGQGTLVTVSS
modifications: C-terminal cysteine coupled to DSPE-PEG-maleimide on the liposomal surface
notes: Liposome as for L-A8; also called FGFR4-targeted liposomes; not shown: C-terminal Myc/6xHis-tag and an additional cysteine
MFI [1]: 1400 MFI | fold increase of MFI over L-mCh [2]: 28 fold

B2: L-A8, VCR-loaded fluorescent liposomes decorated with nanobody A8 (other)
VHH: EVQLQASGGGFVQPGGSLRLSCAASGRTYSRDTMGWFRQAPGKEREFVSAISSRHSHTTYYADSVKGRFTISRDNSKNTVYLQMNSLRAEDTATYYCAEWDVFDMHYALPPMWYWGQGTQVTVSS
modifications: C-terminal cysteine coupled to DSPE-PEG-maleimide on the liposomal surface
notes: Liposome of egg sphingomyelin, cholesterol, PEG-ceramide, DSPE-PEG-maleimide and DiR, loaded with vincristine; also called FGFR4-targeted liposomes; not shown: C-terminal Myc/6xHis-tag and an additional cysteine
MFI [1]: 300 MFI | fold increase of MFI over L-mCh [2]: 6 fold

B3: L-B1, VCR-loaded fluorescent liposomes decorated with nanobody B1 (other)
VHH: EVQLQASGGGFVQPGGSLRLSCAASGYTSRSSAMGWFRQAPGKEREFVSAISDLTGYPYYYADSVKGRFTISRDNSKNTVYLQMNSLRAEDTATYYCAAYQDDKWTYGSQHGKYWGQGTQVTVSS
modifications: C-terminal cysteine coupled to DSPE-PEG-maleimide on the liposomal surface
notes: as for B1
MFI [1]: 600 MFI | fold increase of MFI over L-mCh [2]: 12 fold

B4: L-B5, VCR-loaded fluorescent liposomes decorated with nanobody B5 (other)
VHH: EVQLQASGGGFVQPGGSLRLSCAASGRTSWLTTMGWFRQAPGKEREFVSAISSFSSKQGYYADSVKGRFTISRDNSKNTVYLQMNSLRAEDTATYYCAYASYPRHQGNGRWKDFVEYWGQGTQVTVSS
modifications: C-terminal cysteine coupled to DSPE-PEG-maleimide on the liposomal surface
notes: as for B1
MFI [1]: 1700 MFI | fold increase of MFI over L-mCh [2]: 34 fold
